# Measurements as given in publication PMC9279222, “Human myelin proteolipid protein structure and lipid bilayer stacking” (Cellular and Molecular Life Sciences: CMLS, 2022).
# B1: human myelin proteolipid protein (natural protein, UniProt P60201-1 1-277, looked up)
# chain: MGLLECCARCLVGAPFASLVATGLCFFGVALFCGCGHEALTGTEKLIETYFSKNYQDYEYLINVIHAFQYVIYGTASFFFLYGALLLAEGFYTTGAVRQIFGDYKTTICGKGLSATVTGGQKGRGSRGQHQAHSLERVCHCLGKWLGHPDKFVGITYALTVVWLLVFACSAVPVYIYFNTWTTCQSIAFPSKTSASIGSLCADARMYGVLPWNAFPGKVCGSNLLSICKTAEFQMTFHLFIAAFVGAAATLVSLLTFMIAATYNFAVLKLMGRGTKF
# notes: myelin proteolipid protein (PLP), human, 30 kDa; cloned from acc; NM_000533; Studied in a detergent complex (DM, UDM or d-DDM); also called PLP; myelin PLP; source: Sf21 insect cells (baculovirus), solubilized in DM or UDM, purified (IMAC, TEV cleavage, reverse IMAC, SEC); not shown: eGFP, C-terminal, cleaved; His8, C-terminal, cleaved
# B2: human DM20 (shorter isoform of myelin proteolipid protein) (natural protein, UniProt P60201-2 1-242, looked up)
# chain: MGLLECCARCLVGAPFASLVATGLCFFGVALFCGCGHEALTGTEKLIETYFSKNYQDYEYLINVIHAFQYVIYGTASFFFLYGALLLAEGFYTTGAVRQIFGDYKTTICGKGLSATFVGITYALTVVWLLVFACSAVPVYIYFNTWTTCQSIAFPSKTSASIGSLCADARMYGVLPWNAFPGKVCGSNLLSICKTAEFQMTFHLFIAAFVGAAATLVSLLTFMIAATYNFAVLKLMGRGTKF
# notes: DM20, minor isoform of human PLP (26 kDa), lacks 35 residues in the intracellular loop; Studied in a detergent complex (DM or UDM); source: Sf21 insect cells (baculovirus), solubilized in DM or UDM, purified (IMAC, TEV cleavage, reverse IMAC, SEC); not shown: eGFP, C-terminal, cleaved; His8, C-terminal, cleaved
# Target: the molecule itself
# Experiment: SEC-MALS; protein conjugate analysis; 50 µg protein on Superdex 200 Increase 10/300 in 0.2% DM, 0.3 M NaCl, 0.5 mM TCEP, 5% glycerol, 20 mM Tris pH 7.5; protein-detergent complex
row,Protein,stoichiometry N
1,B1,2
2,B2,2
